Source: patent US20200308299A1, “ANTI-GPC-1 ANTIBODY” (National University Corporation Kochi University, priority 2017, published 2020)

Tests used:
DU145 cells = assay: ADC assay combining anti-GPC-1 antibody and MMAF binding secondary antibody in DU145 cells; type: cell-based; details: 3 days; for EC50 values against DU145 cells: primary antibody plus MMAF secondary antibody
Method: 2000 DU145 cells were added to a 96-well plate at 80 μl. The cells were cultured overnight at 37° C. in a 5% CO2 incubator. The next day, 10 μl each of anticancer agent binding secondary antibody (2 μg/ml) and primary antibody concentrated 10-fold relative to the final concentration was added to each well, so that the total amount was 100 μl. The cells were cultured for 3 days at 37° C. in a 5% CO2 incubator. The cell viability was measured by using a CellTiter-Glo Luminescent Cell Viability Assay reagent to detect the amount of ATP. RPMI1640+10% FBS+1% PS was used as the medium. The final concentrations of the primary antibodies were […]. 2 μg/ml of Fab-aMFc-CL-MMAF (model number AM202AF-50, Moradec) was used as the secondary antibody. The EC50 value was analyzed with GraphPad Prism 6. The same experiment was conducted using 4000 MDA-MB231 cells as the control.

TE14 cells = assay: ADC assay combining anti-GPC-1 antibody and MMAF binding secondary antibody, TE14 cells; type: cell-based; details: primary antibody plus MMAF secondary antibody
Method: FIG. 1 depicts a schematic diagram of an ADC used in an assay. This Example used a secondary antibody (MORADEC) to the anti-GPC1 antibody made in Example 1, to which an anticancer agent (MMAF) was bound via a linker.
2000 TE14 cells were added to a 96-well plate at 80 μl. The cells were cultured overnight at 37° C. in a 5% CO2 incubator. The next day, 10 μl of an anticancer agent bound secondary antibody and 10 μl of a primary antibody concentrated 10-fold relative to the final concentration was added to each well, so that the total amount was 100 μl. The cells were cultured for 6 days at 37° C. in a 5% CO2 incubator. The cell viability was measured by using a CellTiter-Glo Luminescent Cell Viability Assay reagent to detect the amount of ATP. RPMI1640+10% FBS+1% PS was used as the medium. The final concentrations of the primary antibody were 0, 0.004, 0.0156, 0.0625, 0.25, and 1.0 nM. 2 μg/ml of Fab-aMFc-CL-MMAF (model number: AM202AF-50, Moradec) was used as the secondary antibody.

Molecule | EC50 values against DU145 cells (DU145 cells) | EC50 values against TE14 cells (TE14 cells) | growth suppressing effect against DU145 cells (DU145 cells; primary antibody plus MMAF secondary antibody 2 μg/ml)
clone 01a042: anti-human Glypican-1 antibody, heavy chain SEQ ID NO: 162, light chain SEQ ID NO: 164 (antibody) heavy: MKHLWFFLLLVAAPRWVLSQVQLQQPGAELAKPGASVKMSCKASGYTFTRYWMHWVKQRPGQGLEWIGYINPSSGYTEYNQKFKDKATLTADKSSSTAYMQLSSLTSEDSAVYYCVRLGDYSYYFDYWGQGTTLTVSSAKTTAPSVYPLAPVCGDTTGSSVTLGCLVKGYFPEPVTLTWNSGSLSSGVHTFPAVLQSDLYTLSSSVTVTSSTWPSQSITCNVAHPASSTKVDKKIEPRGPTIKPCPPCKCPAPNLLGGPSVFIFPPKIKDVLMISLSPIVTCVVVDVSEDDPDVQISWFVNNVEVHTAQTQTHREDYNSTLRVVSALPIQHQDWMSGKEFKCKVNNKDLPAPIERTISKPKGSVRAPQVYVLPPPEEEMTKKQVTLTCMVTDFMPEDIYVEWTNNGKTELNYKNTEPVLDSDGSYFMYSKLRVEKKNWVERNSYSCSVVHEGLHNHHTTKSFSRTPGK light: MRLLAQLLGLLMLWVPGSSGDVVMTQTPLSLPVSLGDQASISCRSSQSIVHSNGNTYLEWYLQKPGQSPKLLIYKVSNRFSGVPDRFSGSGSGTDFTLKISRVEAEDLGVYYCFQGSHVPWTFGGGTKLELKRADAAPTVSIFPPSSEQLTSGGASVVCFLNNFYPKDINVKWKIDGSERQNGVLNSWTDQDSKDSTYSMSSTLTLTKDEYERHNSYTCEATHKTSTSPIVKSFNRNEC | excellent EC50 values | excellent EC50 values | –
clone 02a010: anti-human Glypican-1 antibody, heavy chain SEQ ID NO: 174, light chain SEQ ID NO: 176 (antibody) heavy: MKHLWFFLLLVAAPRWVLSEVKLVESGGGLVKPGGSRKLSCAASGFTFSDYGMHWVRQAPEKGLEWVAYINSGSSTIYYADTVKGRFTISRDNAKNTLFLQMTSLRSGDTAMYYCARHSYYSYDVGGDYVMDYWGQGTSVTVSSAKTTAPSVYPLAPVCGDTTGSSVTLGCLVKGYFPEPVTLTWNSGSLSSGVHTFPAVLQSDLYTLSSSVTVTSSTWPSQSITCNVAHPASSTKVDKKIEPRGPTIKPCPPCKCPAPNLLGGPSVFIFPPKIKDVLMISLSPIVTCVVVDVSEDDPDVQISWFVNNVEVHTAQTQTHREDYNSTLRVVSALPIQHQDWMSGKEFKCKVNNKDLPAPIERTISKPKGSVRAPQVYVLPPPEEEMTKKQVTLTCMVTDFMPEDIYVEWTNNGKTELNYKNTEPVLDSDGSYFMYSKLRVEKKNWVERNSYSCSVVHEGLHNHHTTKSFSRTPGK light: MRLLAQLLGLLMLWVPGSSGDIVLTQSPKFMSTSVGDRVSITCKASQDVGTAVAWYQQKPGQSPKLLIYWASTRHTGVPDRFTGSGSGTDFTLTISNVQSEDLADYFCQQYSSYPLTFGAGTKLEIKRADAAPTVSIFPPSSEQLTSGGASVVCFLNNFYPKDINVKWKIDGSERQNGVLNSWTDQDSKDSTYSMSSTLTLTKDEYERHNSYTCEATHKTSTSPIVKSFNRNEC | excellent EC50 values | excellent EC50 values | high growth suppressing effect
clone 02b006: anti-human Glypican-1 antibody, heavy chain SEQ ID NO: 194, light chain SEQ ID NO: 196 (antibody) heavy: MKHLWFFLLLVAAPRWVLSEVQLVESGGGLVKPGGSRKLSCAASGFTFSDYGMHWVRQAPEKGLEWVAYISSGSSTIYYADTVKGRFTISRDNAKNTLFLQMTSLRSEDTAIYYCVRHSYYNYDIGGYYAMDYWGQGTSVTVSSAKTTAPSVYPLAPVCGDTTGSSVTLGCLVKGYFPEPVTLTWNSGSLSSGVHTFPAVLQSDLYTLSSSVTVTSSTWPSQSITCNVAHPASSTKVDKKIEPRGPTIKPCPPCKCPAPNLLGGPSVFIFPPKIKDVLMISLSPIVTCVVVDVSEDDPDVQISWFVNNVEVHTAQTQTHREDYNSTLRVVSALPIQHQDWMSGKEFKCKVNNKDLPAPIERTISKPKGSVRAPQVYVLPPPEEEMTKKQVTLTCMVTDFMPEDIYVEWTNNGKTELNYKNTEPVLDSDGSYFMYSKLRVEKKNWVERNSYSCSVVHEGLHNHHTTKSFSRTPGK light: MRLLAQLLGLLMLWVPGSSGDIVLTQSPSSLSASLGERVSLTCRASQEISGYLSWLQQKPDGTIKRLIYAASTLDSGVPKRFSGSRSGSDYSLTISSLESEDFADYYCLQYASYPLTFGAGTKLEIKRADAAPTVSIFPPSSEQLTSGGASVVCFLNNFYPKDINVKWKIDGSERQNGVLNSWTDQDSKDSTYSMSSTLTLTKDEYERHNSYTCEATHKTSTSPIVKSFNRNEC | excellent EC50 values | excellent EC50 values | –
clone 02a002: anti-human Glypican-1 antibody, heavy chain SEQ ID NO: 166, light chain SEQ ID NO: 168 (antibody) heavy: MKHLWFFLLLVAAPRWVLSEVKLVESGGGLVKPGGSRKLSCAASGFTFSDYGMHWVRQAPEKGLEWVAYISSGSSTIYYADTVKGRFTISRDNAKNTLFLQMTSLRSEDTAMYYCARHSYYSYDVGGDYVMDYWGQGTSVTVSSAKTTAPSVYPLAPVCGDTTGSSVTLGCLVKGYFPEPVTLTWNSGSLSSGVHTFPAVLQSDLYTLSSSVTVTSSTWPSQSITCNVAHPASSTKVDKKIEPRGPTIKPCPPCKCPAPNLLGGPSVFIFPPKIKDVLMISLSPIVTCVVVDVSEDDPDVQISWFVNNVEVHTAQTQTHREDYNSTLRVVSALPIQHQDWMSGKEFKCKVNNKDLPAPIERTISKPKGSVRAPQVYVLPPPEEEMTKKQVTLTCMVTDFMPEDIYVEWTNNGKTELNYKNTEPVLDSDGSYFMYSKLRVEKKNWVERNSYSCSVVHEGLHNHHTTKSFSRTPGK light: MRLLAQLLGLLMLWVPGSSGDIVMSQSPKFMSTSVGDRVSITCKASQDVGTAVAWYQQKPGQSPKLLIYWASTRHTGVPDRFTGSGSGTDFTLTISNVQSEDLADYFCQQYSSYPLTFGAGTKLEIKRADAAPTVSIFPPSSEQLTSGGASVVCFLNNFYPKDINVKWKIDGSERQNGVLNSWTDQDSKDSTYSMSSTLTLTKDEYERHNSYTCEATHKTSTSPIVKSFNRNEC | excellent EC50 values | excellent EC50 values | –
clone 02a014: anti-human Glypican-1 antibody, heavy chain SEQ ID NO: 178, light chain SEQ ID NO: 180 (antibody) heavy: MKHLWFFLLLVAAPRWVLSEVQLQQSGPELVKPGASVKISCKASGYSFTGYYIHWVKQSPEKSLEWIGEINPSTGDITYNQKFKAKATLTVDKSSSTAYMQLKSLTSDDSAVYYCARERNYDRFAYWGQGTLVTVSSAKTTAPSVYPLAPVCGDTTGSSVTLGCLVKGYFPEPVTLTWNSGSLSSGVHTFPAVLQSDLYTLSSSVTVTSSTWPSQSITCNVAHPASSTKVDKKIEPRGPTIKPCPPCKCPAPNLLGGPSVFIFPPKIKDVLMISLSPIVTCVVVDVSEDDPDVQISWFVNNVEVHTAQTQTHREDYNSTLRVVSALPIQHQDWMSGKEFKCKVNNKDLPAPIERTISKPKGSVRAPQVYVLPPPEEEMTKKQVTLTCMVTDFMPEDIYVEWTNNGKTELNYKNTEPVLDSDGSYFMYSKLRVEKKNWVERNSYSCSVVHEGLHNHHTTKSFSRTPGK light: MRLLAQLLGLLMLWVPGSSGSIVMTQTPALMAASPGEKVTITCSVSSSISSSNLHWYQQKSETSPKPWIYGTSNLASGVPVRFSGSGSGTSYSLTISSMEAEDAATYYCQQWSSYPLTFGAGTKLEIKRADAAPTVSIFPPSSEQLTSGGASVVCFLNNFYPKDINVKWKIDGSERQNGVLNSWTDQDSKDSTYSMSSTLTLTKDEYERHNSYTCEATHKTSTSPIVKSFNRNEC | excellent EC50 values | excellent EC50 values | –
clone 18: anti-Glypican-1 antibody, heavy chain SEQ ID NO: 202, light chain SEQ ID NO: 204; sequence from WO 2015/098112 (antibody) heavy: AVTLDESGGGLQTPGGTLSLVCKASGFDFSSVNMFWVRQAPGKGLEFVAGIDNDATFTLYGSAVKGRASISRDNGQSTVRLQLNNLRAEDTGTYYCAKTLCSTTWGCGAYSAGDIDAWGHGTEVIVSS light: ASTQPSSVSANPGETVKITCSGGGSSGYGYYGWYQQKSPGSAPVTVIYNNNKRPTDIPSRFSGALSGSTATLTITGVQVEDEAVYYCGSRDNTYVGIFGAGTTLTVL | excellent EC50 values | excellent EC50 values | –
